{"source": "paper PMC12009402", "about": "(Scientific Reports, 2025)", "proteins": {"B1": {"name": "hCCL5-K25S (ligand)", "chain": "SPYSSDTTPCCFAYIARPLPRAHISEYFYTSGKCSNPAVVFVTRKNRQVCANPEKKWVREYINSLEMS"}}, "biological_target": "the molecule itself", "test": "AUC"}
{"protein": "B1", "values": [{"measurement": "stoichiometry N", "result": "~200"}]}
